Molecular target: T1, Recombinant Human PD-L1-TVMV-His, hPDL1(19-239)-TVMV-His (human, UniProt Q9NZQ7 19-239)
T1 construct: also called PD-L1-His; soluble PD-L1
Assay: HTRF competition of PD-1-Ig binding to PD-L1-His; grade, legend paragraph 524: A=0.10-10 µM
Method: Homogenous Time-Resolved Fluorescence (HTRF) Assays of Binding of Soluble PD-1 to Soluble PD-L1. Soluble PD-1 and soluble PD-L1 refers to proteins with carboxyl-end truncations that remove the transmembrane-spanning regions and are fused to heterologous sequences, specifically the Fc portion of the human immunoglobuling G sequence (Ig) or the hexahistidine epitope tag (His). All binding studies were performed in an HTRF assay buffer consisting of dPBS supplemented with 0.1% (w/v) bovine serum albumin and 0.05% (v/v) Tween-20. For the PD-1-Ig/PD-L1-His binding assay, inhibitors were pre-incubated with PD-L1-His (10 nM final) for 15 m in 4 μl of assay buffer, followed by addition of PD-1-Ig (20 nM final) in 1 μl of assay buffer and further incubation for 15m. PD-L1 fusion proteins from either human, cynomologous macaques, mouse, or other species were used. HTRF detection was achieved using europium crypate-labeled anti-Ig monoclonal antibody (1 nM final) and allophycocyanin (APC) labeled anti-His monoclonal antibody (20 nM final). Antibodies were diluted in HTRF detection buffer and 5 μl was dispensed on top of binding reaction. The reaction was allowed to equilibrate for 30 minutes and signal (665 nm/620 nm ratio) was obtained using an EnVision fluorometer. […]

T1 sequence (Q9NZQ7 other isoform, or with tags, fused parts or gaps limits assumed): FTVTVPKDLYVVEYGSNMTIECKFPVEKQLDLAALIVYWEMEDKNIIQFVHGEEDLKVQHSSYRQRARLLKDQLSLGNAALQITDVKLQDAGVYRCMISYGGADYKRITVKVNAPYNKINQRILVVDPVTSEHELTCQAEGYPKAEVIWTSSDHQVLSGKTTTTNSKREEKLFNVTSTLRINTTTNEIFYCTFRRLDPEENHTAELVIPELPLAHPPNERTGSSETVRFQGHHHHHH

- IC50: 0.1 to 10 µM
B1: Example 1001 (peptide)
peptide: FANPHLXWSWXXRCG
modifications: not fully specified; N-terminal acetyl group (from chloroacetyl capping) joined as a thioether to the side chain of Cys 14 (macrocycle); N-methyl-Ala at 2; X at 7 = residue from 'Fmoc-Cyclopenty-Gly-OH'; X at 11 and 12 = N-methyl-norleucine; C-terminal amide (Rink resin)
notes: the structure itself is only a drawing (CHEM-US-00006)

Source: US20160176928A1 (Bristol-Myers Squibb, published 2016)
